Measurements as given in article PMC5691136 (2017).

Molecular target: PS372424 (CXCR3 agonist)

B1: CXCR3-A expressed from pEGFPN2 in HEK-293 cells (HEK-CXCR3-A) (receptor)
chain: MVLEVSDHQVLNDAEVAALLENFSSSYDYGENESDSCCTSPPCPQDFSLNFDRAFLPALYSLLFLLGLLGNGAVAAVLLSRRTALSSTDTFLLHLAVADTLLVLTLPLWAVDAAVQWVFGSGLCKVAGALFNINFYAGALLLACISFDRYLNIVHATQLYRRGPPARVTLTCLAVWGLCLLFALPDFIFLSAHHDERLNATHCQYNFPQVGRTALRVLQLVAGFLLPLLVMAYCYAHILAVLLVSRGQRRLRAMRLVVVVVVAFALCWTPYHLVVLVDILMDLGALARNCGRESRVDVAKSVTSGLGYMHCCLNPLLYAFVGVKFRERMWMLLLRLGCPNQRGLQRQPSSSRRDSSWSETSEASYSGL
With B1 the Kd was 0.04 µM.
